Consider 6 substances from article PMC8720280.

What all share (experiment): BLI
On the technique in general: BLI is a label-free optical method that tracks binding on a fibre tip over time.

The target of one assay is Tiga.
The target of a further assay is AMG655. The note with it: fit R^2 0.9925.
The next assay deals with KMTR2.
A further assay addresses Lexatumumab. The note with it: Loading ID Biot-Lexa.
Assay [1] deals with KYGQ:AAGA (45-48) Mut rDR5.
For assay [2], the target named is SGE:AAA (135-137) NS Mut rDR5.

What is called kon is the rate constant with which the complex forms. A word on the koff: it is a measure of how fast the partners let go of each other. A word on the Kd: it is the constant that tells how readily two partners part at equilibrium. The low end stands for tighter binding, the high end for weaker binding.

For “WT DR5 recombinant protein (IgG4-Fc tagged extracellular domain of human DR5) (from UniProt O14763-1) E98A; M99A”, the kon in the assay with Tiga (fit R^2 0.9770) was 9.34e+06 M⁻¹ s⁻¹.

As for “WT DR5 recombinant protein (IgG4-Fc tagged extracellular domain of human DR5) (from UniProt O14763-1) S135A; G136A; E137A”, the koff stood at 6.82e-05 s⁻¹ with AMG655, 2.01e-05 s⁻¹ in the assay with KMTR2 (fit R^2 0.9964) and 0.000625 s⁻¹ in the assay with Tiga (fit R^2 0.9793). Moreover, the on-rate (kon) is 539000 M⁻¹ s⁻¹ with AMG655, 791000 M⁻¹ s⁻¹ with KMTR2 (fit R^2 0.9964) and 742000 M⁻¹ s⁻¹ with Tiga (fit R^2 0.9793).

As to “WT DR5 recombinant protein (IgG4-Fc tagged extracellular domain of human DR5) (from UniProt O14763-1) K45A; Y46A; Q48A”, in the assay with KMTR2 (fit R^2 0.9806), the koff was 1e-07 s⁻¹ and the kon is 750000 M⁻¹ s⁻¹. In the assay with Tiga (fit R^2 0.9860), this substance yielded a dissociation rate constant (koff) of 0.000153 s⁻¹ and a kon of 1.72e+06 M⁻¹ s⁻¹.

In the assay with Lexatumumab (fit R^2 0.8916), “WT DR5 recombinant protein (IgG4-Fc tagged extracellular domain of human DR5) (from UniProt O14763-1) C103_R104insA” yielded an equilibrium dissociation constant (Kd) of 0.266 nM and an association rate constant (kon) of 2.14e+06 M⁻¹ s⁻¹.

In the assay with Lexatumumab (fit R^2 0.8774), “WT DR5 recombinant protein (IgG4-Fc tagged extracellular domain of human DR5) (from UniProt O14763-1) C103_R104insS” gave a Kd of 0.215 nM and a kon of 1.5e+06 M⁻¹ s⁻¹.

Turning to Tigatuzumab, the off-rate constant (koff) was determined as 0.000153 s⁻¹ in assay [1] and 0.000625 s⁻¹ in assay [2].
